Values joined by “and” are separate entries in the source; they are usually repeats but may differ in a detail not shown here. Equal values may be shown once. Values belong to the substance of their own block, whether it stands above or below them.
Legend:
[1] = target: K18 tau construct (K18-C291A/C322A/I260C), labelled with AlexaFluor-488 or AlexaFluor-647; test: FRET or BRET; single-molecule FRET of species released from washed A488/A647-K18 filaments: pellet washed four times, fresh 50 mM ammonium acetate pH 7.0 added; aliquots diluted into the same buffer and measured on BSA-treated slides, no flow
[2] = target: K18 tau construct (K18-C291A/C322A/I260C), labelled with AlexaFluor-488 or AlexaFluor-647; test: FRET or BRET; single-molecule FRET of oligomers during aggregation: equimolar A488- and A647-labelled construct, 10 uM in all, 50 mM ammonium acetate pH 7.0, 37 °C, undisturbed, heparin (MW 3000) at 1:4 molar ratio; aliquots diluted 50,000-fold into the same buffer with 0.1 mg/ml BSA and 2.5 uM heparin, measured under flow in a microfluidic channel; bursts in the acceptor channel counted as oligomers
[3] = target: K18-P301L, labelled with AlexaFluor-488 or AlexaFluor-647; test: as above
[4] = target: K18-ΔK280, labelled with AlexaFluor-488 or AlexaFluor-647; test: as above

- percent of soluble tau that is oligomeric (immediately after dilution of filaments) [1]: 0.6 to 3%
- oligomer concentration (typical) [2]: 5 nM
- percent of detected soluble species that are oligomers (after 0.5 h) [2]: 0.1%
Substance: K18 tau construct (K18-C291A/C322A/I260C), labelled with AlexaFluor-488 or AlexaFluor-647 (domain or fragment)

- peak oligomer concentration relative to K18-wt [3]: 4 fold and 3 fold
Substance: K18-P301L, labelled with AlexaFluor-488 or AlexaFluor-647 (domain or fragment)

- fold more oligomers at peak than for K18 [4]: 50 fold
- percent of detected species that are oligomers (at peak, 0.5 h) [4]: 4%
Substance: K18-ΔK280, labelled with AlexaFluor-488 or AlexaFluor-647 (domain or fragment)

Reference: publication PMC4421837
